Assay results published in the supplement of paper PMC6757056.
± gives the standard deviation of the averaged measurements.

B1: library; a variant is named by its letters at N, in order (parent)
chain: GCUGUCACCGGUGCUUGGUACGUUAUAUUCAGCCGGUCUGAUGAGUCUNNNNNNAGACGAAACAGC

Legend:
(6R,S)-folinic acid [1] = variants of: B1; experiment: normalized RNA/DNA level without ligand (relative to sTRSVctl = 100) (log10 (% of sTRSVctl)); HEK293T overexpressing SLC46A1; higher = less ribozyme self-cleavage, higher mRNA level; conditions: without (6R,S)-folinic acid; ligand present: no
How it was run: (§1)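 Ribozyme switch library plasmids with mCherry reporters (eGFP in certain ligand experiments) went into HEK293T cells at 4 µg per 6-well well. Where ligand was used, it was applied 1 h before transfection, and total RNA was extracted with EDTA 72 h later for reverse transcription, amplification, barcoding and sequencing. RNA level is the RNA-to-DNA read ratio normalized to a spiked-in non-cleaving sequence or to the leading sequences, then scaled and log-transformed. Scaling was ×100 with log10, the leading set comprised 25 sequences, and the cutoff was ≥100 DNA reads.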

(6R,S)-folinic acid [2] = variants of: B1; experiment: normalized RNA/DNA level with ligand (relative to sTRSVctl = 100) (log10 (% of sTRSVctl)); HEK293T overexpressing SLC46A1; ligand concentration (+) RNA-Seq: 6 mM; higher = less ribozyme self-cleavage, higher mRNA level; conditions: with (6R,S)-folinic acid; ligand present: yes
How it was run: as §1

| Variant | normalized RNA/DNA level without ligand (log10) ((6R,S)-folinic acid [1]) | normalized RNA/DNA level with ligand (log10) ((6R,S)-folinic acid [2]) |
| --- | --- | --- |
| GCCGUA | 2.002 ± 0.0022 | 2.02 ± 0.05 |
| GCCGUU | 2.067 ± 0.017 | 2.04 ± 0.006 |
| GCCGUC | 2.08 ± 0.031 | 2.081 ± 0.0053 |
| GCCGUG | 1.994 ± 0.012 | 2.033 ± 0.018 |
| CCCGCG | 2.09 ± 0.023 | 2.01 ± 0.034 |
| CCCGCU | 2.109 ± 0.014 | 2.08 ± 0.068 |
| UCCUAU | 1.9805 ± 0.00094 | 2.03 ± 0.034 |
| UCCUAG | 1.849 ± 0.004 | 2.009 ± 0.0087 |
| UCCUAC | 2.024 ± 0.015 | 2.05 ± 0.026 |
| UCCUAA | 1.981 ± 0.0064 | 2.018 ± 0.014 |
| UCCUGU | 1.999 ± 0.018 | 2.05 ± 0.043 |
| UCCUGC | 2.057 ± 0.01 | 2.077 ± 0.014 |
| UCCUGG | 1.91 ± 0.023 | 2.04 ± 0.023 |
| UCCUGA | 2.025 ± 0.0055 | 2.045 ± 0.018 |
| GCCGCC | 2.024 ± 0.0036 | 2.0189 ± 0.00031 |
| GCCGCG | 2.0553 ± 0.00018 | 2.092 ± 0.0094 |
| GCCGCU | 2.048 ± 0.0044 | 2.04 ± 0.044 |
| ACGAAU | 1.95 ± 0.021 | 2 ± 0.035 |
| ACGAAC | 2.02 ± 0.021 | 2.03 ± 0.044 |
| UCGACA | 1.999 ± 0.0076 | 2.022 ± 0.0062 |
| UCGACC | 2.052 ± 0.0052 | 2.04 ± 0.036 |
| UCGACG | 1.867 ± 0.017 | 1.9974 ± 0.0011 |
| UCCGCU | 2.068 ± 0.01 | 2.042 ± 0.015 |
| UCCGCC | 2.03 ± 0.021 | 2.0083 ± 0.00058 |

| Variant | normalized RNA/DNA level without ligand (log10) ((6R,S)-folinic acid [1]) | normalized RNA/DNA level with ligand (log10) ((6R,S)-folinic acid [2]) |
| --- | --- | --- |
| CCCUCG | 2.04 ± 0.025 | 1.997 ± 0.014 |
| CCCUCC | 2.07 ± 0.015 | 2.006 ± 0.014 |
| CCCUCU | 2.1 ± 0.026 | 2.09 ± 0.057 |
| GCCUCG | 2.034 ± 0.016 | 2.04 ± 0.046 |
| GCCUCU | 2.0468 ± 0.0011 | 2.07 ± 0.027 |
| GCCUCC | 2.068 ± 0.0082 | 2.05 ± 0.033 |
| GCCUCA | 2.041 ± 0.02 | 2.05 ± 0.044 |
| CCCGGA | 2.073 ± 0.016 | 2.03 ± 0.061 |
| CCCGGC | 2.08 ± 0.037 | 2.02 ± 0.065 |
| CCCGGG | 2.019 ± 0.0077 | 1.987 ± 0.0062 |
| CCGAGA | 1.988 ± 0.01 | 2.011 ± 0.0034 |
| GCCUGU | 2.057 ± 0.0027 | 2.06 ± 0.038 |
| GCCUGC | 2.052 ± 0.01 | 2.046 ± 0.013 |
| GCCUGG | 2.001 ± 0.011 | 2.03 ± 0.034 |
| GCCUGA | 2.036 ± 0.0063 | 2.07 ± 0.028 |
| ACCGCU | 2.07 ± 0.026 | 2.08 ± 0.028 |
| ACCGCC | 2.045 ± 0.02 | 2.05 ± 0.041 |
| ACCGCG | 1.994 ± 0.015 | 2.05 ± 0.017 |
| ACCUAA | 2.021 ± 0.013 | 1.994 ± 0.018 |
| ACCUAC | 2.0248 ± 0.0018 | 2.02 ± 0.028 |
| ACCGUG | 1.92 ± 0.02 | 2.007 ± 0.015 |
| ACCGUA | 1.969 ± 0.0072 | 2.01 ± 0.048 |
| ACCGUC | 2.1 ± 0.03 | 2.07 ± 0.037 |
| ACCUGU | 2.01 ± 0.025 | 2 ± 0.024 |

| Variant | normalized RNA/DNA level without ligand (log10) ((6R,S)-folinic acid [1]) | normalized RNA/DNA level with ligand (log10) ((6R,S)-folinic acid [2]) |
| --- | --- | --- |
| ACCUGC | 2.07 ± 0.016 | 2.04 ± 0.044 |
| ACCUGG | 1.9783 ± 0.00064 | 2.04 ± 0.034 |
| ACCUGA | 1.999 ± 0.003 | 2.03 ± 0.029 |
| CCCUUU | 2.06 ± 0.024 | 2.06 ± 0.044 |
| CCCUUG | 2.069 ± 0.0099 | 2.091 ± 0.017 |
| CCCUUA | 2.065 ± 0.0096 | 2.08 ± 0.064 |
| CCCGUA | 2.062 ± 0.016 | 2.07 ± 0.055 |
| CCCGUU | 2.057 ± 0.011 | 2.04 ± 0.023 |
| CCCGUG | 2.018 ± 0.016 | 2.012 ± 0.014 |
| CCCGUC | 2.05 ± 0.056 | 2.03 ± 0.065 |
| ACCUUC | 2.038 ± 0.014 | 2.04 ± 0.045 |
| ACCUUA | 2.045 ± 0.009 | 2.041 ± 0.017 |
| ACCUUU | 2.071 ± 0.0086 | 2.02 ± 0.021 |
| ACCUUG | 1.953 ± 0.0055 | 1.999 ± 0.011 |
| ACCUCA | 2.047 ± 0.0058 | 2.07 ± 0.049 |
| ACCUCU | 2.019 ± 0.0056 | 2.014 ± 0.015 |
| ACCUCG | 2.028 ± 0.0069 | 2.074 ± 0.0045 |
| ACCUCC | 2.08 ± 0.0086 | 2.01 ± 0.028 |
| UCGAAC | 2.027 ± 0.01 | 2.006 ± 0.0085 |
| UCGAAA | 1.927 ± 0.0063 | 1.979 ± 0.0054 |
| GCCUAG | 1.98 ± 0.023 | 2.05 ± 0.032 |
| GCCUAA | 2.006 ± 0.019 | 2.022 ± 0.012 |
| GCCUAU | 2.027 ± 0.018 | 2.065 ± 0.02 |
| GCCUAC | 2.056 ± 0.0034 | 2.086 ± 0.0065 |

| Variant | normalized RNA/DNA level without ligand (log10) ((6R,S)-folinic acid [1]) | normalized RNA/DNA level with ligand (log10) ((6R,S)-folinic acid [2]) |
| --- | --- | --- |
| GCCUUG | 1.994 ± 0.0032 | 2.03 ± 0.033 |
| GCCUUU | 2.04 ± 0.032 | 2.05 ± 0.044 |
| GCCUUC | 2.05 ± 0.042 | 2.062 ± 0.012 |
| UCCUCA | 2.046 ± 0.013 | 2.07 ± 0.034 |
| UCCUCC | 2.089 ± 0.016 | 2.02 ± 0.046 |
| UCCUCG | 1.9194 ± 0.00071 | 2 ± 0.029 |
| UCCUCU | 2.054 ± 0.0029 | 2.04 ± 0.024 |
| UCCGUC | 2.1142 ± 0.002 | 2.0759 ± 0.0012 |
| UCCGUU | 2.049 ± 0.0025 | 2.05 ± 0.068 |
| UCCGUA | 1.96 ± 0.029 | 2.004 ± 0.0049 |
| CCCUAG | 2.018 ± 0.004 | 2.045 ± 0.0096 |
| CCCUAA | 2.0445 ± 0.00066 | 2.039 ± 0.015 |
| CCCUAC | 2.07 ± 0.025 | 2.085 ± 0.019 |
| CCCUAU | 2.0351 ± 0.0014 | 2.05 ± 0.038 |
| UCCUUC | 2.084 ± 0.002 | 2.05 ± 0.035 |
| UCCUUU | 2.07 ± 0.021 | 2.08 ± 0.032 |
| UCCUUA | 2.015 ± 0.013 | 2.05 ± 0.0049 |
| GCCGGU | 2.067 ± 0.01 | 2.03 ± 0.034 |
| GCCGGC | 2.049 ± 0.0034 | 1.98 ± 0.051 |
| GCCGGA | 2.07 ± 0.036 | 2.02 ± 0.031 |
| GCCGGG | 2.086 ± 0.015 | 2.045 ± 0.003 |
| ACCGGA | 2.056 ± 0.0065 | 2.042 ± 0.013 |
| ACCGGC | 2.1359 ± 0.0014 | 2.085 ± 0.015 |
| ACCGGG | 2.068 ± 0.0057 | 2.06 ± 0.053 |

| Variant | normalized RNA/DNA level without ligand (log10) ((6R,S)-folinic acid [1]) | normalized RNA/DNA level with ligand (log10) ((6R,S)-folinic acid [2]) |
| --- | --- | --- |
| ACCGGU | 2.068 ± 0.0071 | 2.052 ± 0.015 |
| ACGACU | 1.997 ± 0.0037 | 2.006 ± 0.017 |
| CCGAAU | 2.002 ± 0.013 | 2.019 ± 0.018 |
| CCGAAA | 2.0005 ± 0.0006 | 2 ± 0.016 |
| CCGAAC | 2.035 ± 0.0081 | 2.02 ± 0.049 |
| GCGACG | 1.989 ± 0.017 | 2.02 ± 0.045 |
| GCGACC | 2.029 ± 0.0059 | 2.07 ± 0.037 |
| GCGACU | 2.051 ± 0.0076 | 2.06 ± 0.04 |
| GCGACA | 2.024 ± 0.015 | 2.05 ± 0.03 |
| CCGACC | 2.063 ± 0.0099 | 2.04 ± 0.062 |
| CCGACU | 2.062 ± 0.0038 | 2.01 ± 0.027 |
| CCGACA | 2.02 ± 0.029 | 2.04 ± 0.035 |
| CCGACG | 2.033 ± 0.013 | 2.0354 ± 0.0001 |
| UCCGGU | 2.032 ± 0.019 | 2.02 ± 0.052 |
| UCCGGC | 2.08 ± 0.024 | 2.024 ± 0.018 |
| UCCGGA | 1.99 ± 0.038 | 2.02 ± 0.063 |
| CCCUGC | 2.08 ± 0.025 | 2.08 ± 0.014 |
| CCCUGG | 2.101 ± 0.017 | 2.02 ± 0.022 |
| CCCUGA | 2.088 ± 0.014 | 2.1 ± 0.051 |
| CCCUGU | 2.1 ± 0.0073 | 2.102 ± 0.016 |
